Laboratory results as given in patent US7790365B2, “Assays for modulators of parkin activity using S5a as a parkin substrate” (Elan Pharma International Limited, priority 2007, dated 2010).
“Also recorded” adds a separate entry of the source.

B1: GST-parkin: GST fusion of parkin, RING class E3 ligase (protein)
chain: MIVFVRFNSSHGFPVEVDSDTSIFQLKEVVAKRQGVPADQLRVIFAGKELRNDWTVQNCDLDQQSIVHIVQRPWRKGQEMNATGGDDPRNAAGGCEREPQSLTRVDLSSSVLPGDSVGLAVILHTDSRKDSPPAGSPAGRSIYNSFYVYCKGPCQRVQPGKLRVQCSTCRQATLTLTQGPSCWDDVLIPNRMSGECQSPHCPGTSAEFFFKCGAHPTSDKETSVALHLIATNSRNITCITCTDVRSPVLVFQCNSRHVICLDCFHLYCVTRLNDRQFVHDPQLGYSLPCVAGCPNSLIKELHHFRILGEEQYNRYQQYGAEECVLQMGGVLCPRPGCGAGLLPEPDQRKVTCEGGNGLGCGFAFCRECKEAYHEGECSAVFEASGTTTQAYRVDERAAEQARWEAASKETIKKTTKPCPRCHVPVEKNGGCMHMKCPQPQCRLEWCWNCGCEWNRVCMGDHWFDV
modifications: left off: a dimerising Fc or GST
notes: GST fusion of parkin, RING class E3 ligase
B2: GST-Nedd4: GST fusion of Nedd4, HECT E3 ligase (protein)
chain: MATCAVEVFGLLEDEENSRIVRVRVIAGIGLAKKDILGASDPYVRVTLYDPMNGVLTSVQTKTIKKSLNPKWNEEILFRVHPQQHRLLFEVFDENRLTRDDFLGQVDVPLYPLPTENPRLERPYTFKDFVLHPRSHKSRVKGYLRLKMTYLPKTSGSEDDNAEQAEELEPGWVVLDQPDAACHLQQQQEPSPLPPGWEERQDILGRTYYVNHESRRTQWKRPTPQDNLTDAENGNIQLQAQRAFTTRRQISEETESVDNRESSENWEIIREDEATMYSNQAFPSPPPSSNLDVPTHLAEELNARLTIFGNSAVSQPASSSNHSSRRGSLQAYTFEEQPTLPVLLPTSSGLPPGWEEKQDERGRSYYVDHNSRTTTWTKPTVQATVETSQLTSSQSSAGPQSQASTSDSGQQVTQPSEIEQGFLPKGWEVRHAPNGRPFFIDHNTKTTTWEDPRLKIPAHLRGKTSLDTSNDLGPLPPGWEERTHTDGRIFYINHNIKRTQWEDPRLENVAITGPAVPYSRDYKRKYEFFRRKLKKQNDIPNKFEMKLRRATVLEDSYRRIMGVKRADFLKARLWIEFDGEKGLDYGGVAREWFFLISKEMFNPYYGLFEYSATDNYTLQINPNSGLCNEDHLSYFKFIGRVAGMAVYHGKLLDGFFIRPFYKMMLHKPITLHDMESVDSEYYNSLRWILENDPTELDLRFIIDEELFGQTHQHELKNGGSEIVVTNKNKKEYIYLVIQWRFVNRIQKQMAAFKEGFFELIPQDLIKIFDENELELLMCGLGDVDVNDWREHTKYKNGYSANHQVIQWFWKAVLMMDSEKRIRLLQFVTGTSRVPMNGFAELYGSNGPQSFTVEQWGTPEKLPRAHTCFNRLDLPPYESFEELWDKLQMAIENTQGFDGVD
modifications: left off: a dimerising Fc or GST
notes: GST fusion of Nedd4, HECT E3 ligase
B3: GST-Murf1: GST fusion of Muscle-specific RING finger protein 1, RING E3 ligase (protein)
chain: MDYKSSLIQDGNPMENLEKQLICPICLEMFTKPVVILPCQHNLCRKCANDIFQAANPYWTSRGSSVSMSGGRFRCPTCRHEVIMDRHGVYGLQRNLLVENIIDIYKQECSSRPLQKGSHPMCKEHEDEKINIYCLTCEVPTCSMCKVFGIHKACEVAPLQSVFQGQKTELNNCISMLVAGNDRVQTIITQLEDSRRVTKENSHQVKEELSQKFDTLYAILDEKKSELLQRITQEQEKKLSFIEALIQQYQEQLDKSTKLVETAIQSLDEPGGATFLLTAKQLIKSIVEASKGCQLGKTEQGFENMDFFTLDLEHIADALRAIDFGTDEEEEEFIEEEDQEEEESTEGKEEGHQ
modifications: left off: a dimerising Fc or GST
notes: GST fusion of Muscle-specific RING finger protein 1, RING E3 ligase
B4: GST-Siah2: GST fusion of Seven in absentia homolog 2, RING E3 ligase (protein)
chain: MSRPSSTGPSANKPCSKQPPPQPQHTPSPAAPPAAATISAAGPGSSAVPAAAAVISGPGGGGGAGPVSPQHHELTSLFECPVCFDYVLPPILQCQAGHLVCNQCRQKLSCCPTCRGALTPSIRNLAMEKVASAVLFPCKYATTGCSLTLHHTEKPEHEDICEYRPYSCPCPGASCKWQGSLEAVMSHLMHAHKSITTLQGEDIVFLATDINLPGAVDWVMMQSCFGHHFMLVLEKQEKYEGHQQFFAIVLLIGTRKQAENFAYRLELNGNRRRLTWEATPRSIHDGVAAAIMNSDCLVFDTAIAHLFADNGNLGINVTISTCCP
modifications: left off: a dimerising Fc or GST
notes: GST fusion of Seven in absentia homolog 2, RING E3 ligase
B5: His-CHIP: His-tagged carboxyl terminus of Hsp70-interacting protein, U-box E3 ligase (protein)
chain: MKGKEEKEGGARLGAGGGSPEKSPSAQELKEQGNRLFVGRKYPEAAACYGRAITRNPLVAVYYTNRALCYLKMQQHEQALADCRRALELDGQSVKAHFFLGQCQLEMESYDEAIANLQRAYSLAKEQRLNFGDDIPSALRIAKKKRWNSIEERRIHQESELHSYLSRLIAAERERELEECQRNHEGDEDDSHVRAQQACIEAKHDKYMADMDELFSQVDEKRKKRDIPDYLCGKISFELMREPCITPSGITYDRKDIEEHLQRVGHFDPVTRSPLTQEQLIPNLAMKEVIDAFISENGWVEDY
modifications: left off: small tags and cut ends

Tests used:
[1] = system: S5a; assay: ubiquitination assay of E3 ligases using S5a as the substrate; format: biochemical; conditions: 0.2 mg/mL E3, 200 nM S5a, 1 hour at 37° C., Western blot
Description: For each E3 ligase, a ubiquitination assay using S5a as the substrate was carried out. Briefly, the ubiquitination reaction contained 50 nM E1, 1 mM MgATP, 5 μM UbcH7, 0.2 mg/mL E3, 200 nM ubiquitin, and 200 nM S5a. Ubiquitination reactions were incubated for 1 hour at 37° C. and samples were taken at time 0, 30′ and 60′. Samples were run on SDS-PAGE, transferred to immobilon and Western blotted using monoclonal antibody to S5a (BioMol).

[2] = system: S5a; assay: thermal denaturation of E3 ligases (S5a ubiquitination after pre-incubation); format: biochemical; conditions: for Thermal Denaturation Temperature (temperature at which approximately 50% of activity was lost): E3 pre-incubated 90 minutes at 4° C. to 60° C., then S5a ubiquitination 60 minutes at 37° C.
Description: To characterize the thermal denaturation properties E3 ligases, the E3 was pre-incubated for 90 minutes at a temperature ranging from 4° C. to 60° C. (Mdm2 and Nedd4 at 4, 37, 45, 50 and 60° C.; Murf1 at 4, 37, 50, 60, 70 and 80° C.; E6AP at 37, 39, 41, 43, and 45° C. At 90 minutes, a pre-mix was made containing 50 nM E1, 1 mM Mg-ATP, 5 μM UbcH7 (UbcH5a for Mdm2 and Murf1), 200 nM ubiquitin and 200 nM S5a. The pre-mix was added to 0.2 mg/mL of E3 ligase and incubated at 37° C. for 60 minutes. Samples were run on SDS-PAGE and assessed by Western blotting using monoclonal antibody to S5a (BioMol).

Row | Molecule | Ubiquitinated S5a? [1] | Thermal Denaturation Temperature (temperature at which approximately 50% of activity was lost) [2] [°C] | Thermal Denaturation Temperature (temperature at which approximately 50% of activity was lost) ([2]; listed as E6AP) [°C] | S5a ubiquitination activity after thermal pre-incubation ([2]; E3 pre-incubated 90 minutes at 4, 37, 45, 50 and 60° C.) | Thermal Denaturation Temperature (temperature at which approximately 50% of activity was lost) ([2]; listed as Murf1) [°C] | Ubiquitinated S5a? ([1]; listed as Siah2) | Ubiquitinated S5a? ([1]; listed as CHIP)
1 | GST-E6AP: GST fusion of Human papillomavirus E6-associated protein, HECT E3 ligase | Yes | 41 | 41 | – | – | – | –
2 | B1 | Yes | 49 | – | – | – | – | –
3 | B2 | Yes | 37 | – | did not show any activity when pre-incubated at temperatures higher than 4 °C; also recorded: lose activity following pre-incubation at any temperature except 4 °C | – | – | –
4 | B3 | Yes | 60 | – | – | 60 | – | –
5 | B4 | Yes (low) | – | – | – | – | very low activity | –
6 | B5 | Yes | – | – | – | – | – | reasonable activity
